Reference: patent US5541109
Ends that are not written are not given here.

The binders below were run against ^32 P-labeled GST/PKA fusion protein (Schistosoma japonicum (Blood fluke)) [GST: P08515] (assay: peptide on AminoLink resin, precipitation of 32P-labelled control fusion, counting).
Work on LARPLPVPPWRQ (not fully specified; printed as Leu Ala Arg Pro Leu Pro Val Pro Pro Trp Arg Gln) [fuse5B 4.3-12 (12 mer)] yielded a fold lower binding than GST/PKA/Src SH3 of 100 fold.
With RPLPSPP (not fully specified) [peptide pL14-1-7-mer] the fold lower binding than GST/PKA/Src SH3 was 100 fold.
LALARPLPVPPWRQI (not fully specified) [fuse5B 4.3-15 (15 mer)] showed a fold lower binding than GST/PKA/Src SH3 of 100 fold.
Work on QSRPLPSPPKFT (not fully specified) [peptide pL14-1] yielded a fold lower binding than GST/PKA/Src SH3 of 100 fold.
For RPLPVPP (not fully specified) [fuse5B 4.3-7 (7 mer)], the fold lower binding than GST/PKA/Src SH3 was 100 fold.

What follows are binders tested against ^32 P-labeled GST/PKA/Src SH3 fusion protein (PKA site phosphorylated) (Schistosoma japonicum (Blood fluke)) [GST: P08515] (assay: peptide on AminoLink agarose, 32P-labelled fusion, counting).
TPAPPPLPPRNV (also: covalently coupled to AminoLink agarose) [peptide pL35] was tested, and the percent of CPM bound to beads/CPM applied to beads was 90%.
Work on QSRPLPSPPKFT (not fully specified) [peptide pL14-1] yielded a percent of CPM bound to beads/CPM applied to beads of 70%.
KPPTPPPEPET (not fully specified) [pSV40, proline-rich peptide from SV40 T antigen] showed a percent of CPM bound to beads/CPM applied to beads of less than 1%.

Each binder was assayed against radiolabeled GST/PKA/rasGAP SH3 (Schistosoma japonicum (Blood fluke)) [GST: P08515] in the same assay as above.
In the case of APPAATPPPPRLFRPPA (also: covalently coupled to AminoLink agarose) [peptide pL17-2], the percent of CPM bound to beads/CPM applied to beads is reported as 10%.
